Assay results as given in patent US20050108782A1, “Transgenic RS1-/- animal and uses thereof” (priority 2003, published 2005).

T1: hSGLT1 (Homo sapiens, UniProt P13866)
T1 construct: expressed in transfected cells; host or cells: Xenopus laevis oocytes (cRNA injection)
T1 sequence (P13866 1-664): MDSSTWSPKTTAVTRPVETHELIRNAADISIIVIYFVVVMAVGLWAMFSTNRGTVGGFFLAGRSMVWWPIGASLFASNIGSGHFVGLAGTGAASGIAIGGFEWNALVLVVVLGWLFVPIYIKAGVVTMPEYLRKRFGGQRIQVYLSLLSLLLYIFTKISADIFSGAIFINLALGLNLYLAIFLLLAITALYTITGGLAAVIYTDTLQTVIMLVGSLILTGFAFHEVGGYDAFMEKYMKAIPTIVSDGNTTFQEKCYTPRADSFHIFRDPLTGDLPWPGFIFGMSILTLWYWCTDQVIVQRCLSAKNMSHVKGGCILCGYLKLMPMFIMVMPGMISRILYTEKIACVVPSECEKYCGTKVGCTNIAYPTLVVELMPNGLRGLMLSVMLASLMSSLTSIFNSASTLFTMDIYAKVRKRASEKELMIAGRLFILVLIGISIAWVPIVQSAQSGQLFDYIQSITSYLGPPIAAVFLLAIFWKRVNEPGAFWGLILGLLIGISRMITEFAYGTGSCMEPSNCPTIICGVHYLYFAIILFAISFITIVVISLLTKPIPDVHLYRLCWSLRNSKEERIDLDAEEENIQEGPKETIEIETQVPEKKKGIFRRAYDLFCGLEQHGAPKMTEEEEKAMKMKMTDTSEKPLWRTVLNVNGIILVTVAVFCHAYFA


Legend:
hSGLT1 = biological target: T1, hSGLT1; assay: [14C]AMG uptake expressed by hSGLT1 in Xenopus laevis oocytes; assay type: cell-based
Protocol: (§1) Stage V-VI oocytes were removed from Xenopus laevis clawed toads, selected and injected with cRNAs or water as described earlier (Veyhl et al., (1994) J. Biol. Chem. 268, 25041-25053). Per oocyte […] of water (control) or water containing plasma membrane transporter cRNAs alone or together with different amounts of hRS1-cRNA were injected. For translation the injected oocytes were incubated for 2-3 days (16° C.) in ORi buffer (5 mM HEPES-Tris, pH 7.4, 100 mM NaCl, 3 mM KCl, 2 mM CaCl and 1 mM MgCl2) containing 50 mg/l gentamycin (Veyhl et al., (1994) J. Biol. Chem. 268, 25041-25053).
(§2) [^14C]-AMG uptake of expressed plasma membrane transporters in oocytes was measured as described earlier Veyhl et al., (1994) J. Biol. Chem. 268, 25041-25053. Each uptake value represents the mean±SEM (n=8-10 oocytes). All experiments were performed with at least 3 batches of Xenopus oocytes.
Dynamin, a member of structurally related but functionally heterogeneous family of GTPases, that is required for clathrin-mediated and other types of endocytosis. After GTP binding dynamin assembles to a ring around the neck of coated pits and induces fission and release of vesicles upon hydrolysis of GTP (Eccleston et al., (2002) Eur. Biophys. J. 31, 275-282.). […] Oocytes were injected with 2.5 ng of hSGLT1-cRNA or with 2.5 ng pf hSGLT1-cRNA plus 10 ng of hRS1-cRNA. In some experiments either 10 ng of wild-type (DyWt) dynamin cRNA or 10 ng of dominant gegative dynamin mutant (DyMu) cRNA were coinjected. After three days of incubation for expression, phlorizin inhibitable uptake of 50 μM of [^14C]AMG was measured over a time period of 15 min as described earlier (Lambotte et al., (1996) DNA Cell Biol. 15, 769-777).
(§3) According to the methods described in Example 11 Xenopus oocytes were injected with 2.5 ng of SGLT1-cRNA or with 2.5 ng of SGLT1-cRNA plus 10 ng of hRS1 and incubated three days for expression (FIG. 11). Then the oocytes were injected with 50 nl Ori buffer (controls) or with 50 nl Ori buffer containing 20 μM of the protein kinase C activator sn-1,2-dioctanoyl glycerol (DOG). After 30 min incubation the phlorizin inhibitable uptake of 50 μM [^14C]AMG was measured as in FIG. 10.

hSGLT1 and hRS1 = assay: [14C]AMG uptake in Xenopus laevis oocytes coexpressing hSGLT1 and hRS1, with protein kinase C activation; assay type: cell-based, human; details: coexpression of hSGLT1 and hRS1; 50 nl Ori buffer containing 20 μM DOG injected, 30 min incubation; 50 μM [14C]AMG
Protocol: as §1, §2
as §3, with “10. […]” for “10.”

Row | Molecule | uptake of AMG expressed by hSGLT1, change by DOG (hSGLT1; hSGLT1 alone, 50 nl Ori buffer containing 20 μM DOG injected, 30 min incubation, 50 μM [14C]AMG) | expressed uptake of AMG, change by DOG (hSGLT1 and hRS1) | expression of AMG uptake by hSGLT1 after coexpression of hRS1 (hSGLT1; 2.5 ng SGLT1-cRNA plus 10 ng hRS1, three days, FIG. 11) | phlorizin inhibitable uptake of 50 μM [14C]AMG (hSGLT1; 2.5 ng hSGLT1-cRNA plus 10 ng hRS1-cRNA, three days expression, hSGLT1 alone 56±7) | Km value of AMG uptake expressed by hSGLT1 (hSGLT1; coexpression with hRS1, unpublished data not shown) | phlorizin inhibitable uptake of 50 μM [14C]AMG (hSGLT1; hSGLT1-cRNA plus hRS1-cRNA, 10 ng dominant negative dynamin mutant (DyMu) cRNA coinjected) | phlorizin inhibitable uptake of 50 μM [14C]AMG (hSGLT1; hSGLT1-cRNA plus hRS1-cRNA, 10 ng wild-type dynamin (DyWt) cRNA coinjected) | Vmax of AMG transport by hSGLT1 after coexpression with hRS1 (hSGLT1; tracer uptake studies and electrical measurements, unpublished data not shown)
1 | CCCCCCCC(=O)OC[C@H](CO)OC(=O)CCCCCCC [DOG, sn-1,2-dioctanoyl glycerol, reference compound] | increased | decreased | – | – | – | – | – | –
2 | hRS1: human RS1 protein, expressed in Xenopus oocytes from injected hRS1-cRNA; regulator of SGLT1 (protein, UniProt Q92681 1-617, looked up) Regulatory solute carrier …: MSSLPTSDGFNHPARSSGQSPDVGNPMSLARSVSASVCPIKPSDSDRIEPKAVKALKASAEFQLNSEKKEHLSLQDLSDHASSADHAPTDQSPAMPMQNSSEEITVAGNLEKSAERSTQGLKFHLHTRQEASLSVTSTRMHEPQMFLGEKDWHPENQNLSQVSDPQQHEEPGNEQYEVAQQKASHDQEYLCNIGDLELPEERQQNQHKIVDLEATMKGNGLPQNVDPPSAKKSIPSSECSGCSNSETFMEIDTAQQSLVTLLNSTGRQNANVKNIGALDLTLDNPLMEVETSKCNPSSEILNDSISTQDLQPPETNVEIPGTNKEYGHYSSPSLCGSCQPSVESAEESCPSITAALKELHELLVVSSKPASENTSEEVICQSETIAEGQTSIKDLSERWTQNEHLTQNEQCPQVSFHQAISVSVETEKLTGTSSDTGREAVENVNFRSLGDGLSTDKEGVPKSRESINKNRSVTVTSAKTSNQLHCTLGVEISPKLLAGEEDALNQTSEQTKSLSSNFILVKDLGQGIQNSVTDRPETRENVCPDASRPLLEYEPPTSHPSSSPAILPPLIFPATDIDRILRAGFTLQEALGALHRVGGNADLALLVLLAKNIVVPT | – | – | reduced | 10±1.5 pmol/oocyte×15 min | does not change | 37±3.5 pmol/oocyte×15 min | 2.5 pmol/oocyte×15 min | decreased
